In paper PMC6999076, “Engineered disulfide bonds improve thermostability and activity of L‐isoleucine hydroxylase for efficient 4‐HIL production in Bacillus subtilis 168” (Engineering in Life Sciences, 2019) one finds Km, kcat and kcat/Km data, which are given here for one protein.

Substrate in series [1]: O=C(O)CCC(=O)C(=O)O
Description: DNFB precolumn derivatization HPLC of 4-HIL; Michaelis-Menten fit. Particulars: 20 mM L-Ile, assay: 1 mM FeSO4, 5 mM ascorbic acid, PBS pH 7.0, 30°C. The series is classed as biochemical, Bacillus cereus.

Substrate in series [2]: CC[C@H](C)[C@H](N)C(=O)O
Described as above. The series is classed as biochemical, Bacillus cereus. The note with it: 20 mM alpha-KG, assay: 1 mM FeSO4, 5 mM ascorbic acid, PBS pH 7.0, 30°C.

B1: L-isoleucine hydroxylase (IDO) (Bacillus cereus ATCC 14579) (protein)
chain: MTFVLSKMNGFSIEEKVHEFESKGFLEISNEIFLQEEENHRLLTQAQLDYYNLEDDAYGECRARSYSRYIKYVDSPDYILDNSNDYFQSKEYNYDDGGKVRQFNSINDSFLCNPLIQNIVRFDTEFAFKTNIIDTSKDLIIGLHQVRYKATKERPSFSSPIWLHKDDEPVVFLHLMNLSNTAIGGDNLIANSPREINQFISLKEPLETLVFGQKVFHAVTPLGTECSTEAFRDILLVTFSYKETK
notes: full-length, 6xHis tag (downstream primer, C-terminal) kept; free cysteines C61, C112, C226; GenBank AE016877.1 is a whole-genome record (B. cereus ATCC 14579), not a gene record
Broadly, the Km is the substrate concentration at which the rate is half of its maximum. Broadly, the kcat is the maximal rate divided by the concentration of active sites. Broadly, the kcat/Km is the second-order rate constant that governs catalysis at low substrate concentration. For B1, in series [1], the Km came to 3340 µM, the turnover number (kcat) came to 0.32 s⁻¹ and the kcat/Km is 90 M⁻¹ s⁻¹. Further, in series [2], the Km was found to be 260 µM, the kcat came out at 0.84 s⁻¹ and the kcat/Km came out at 3180 M⁻¹ s⁻¹.
